{
  "source": "patent US20210371526A1",
  "about": "(AMPSOURCE BIOPHARMA SHANGHAI, published 2021)",
  "key": {"[1]": {"target": "T1, Mucin1 on tumor cells (MCF-7, BT-549, HCC70, T-47D, HCC1954, SK-OV-3, Hela, HT-29) (human, UniProt P15941 24-1255)", "assay": "cell-based or functional assay"}, "[2]": {"target": "T1, Mucin1 on tumor cells (MCF-7, BT-549, …)", "assay": "cell-based or functional assay", "remark": "listed apart in the source"}, "[3]": {"target": "T1, Mucin1 on tumor cells (MCF-7, BT-549, …)", "assay": "flow cytometry on Hela cells"}, "[4]": {"target": "T1, Mucin1 on tumor cells (MCF-7, BT-549, …)", "assay": "flow cytometry on HCC70 cells"}, "[5]": {"target": "T1, Mucin1 on tumor cells (MCF-7, BT-549, …)", "assay": "flow cytometry on T-47D cells"}, "[6]": {"target": "T1, Mucin1 on tumor cells (MCF-7, BT-549, …)", "assay": "flow cytometry on BT-549 cells"}, "[7]": {"target": "T1, Mucin1 on tumor cells (MCF-7, BT-549, …)", "assay": "flow cytometry on HCC1954 cells"}, "[8]": {"target": "T1, Mucin1 on tumor cells (MCF-7, BT-549, …)", "assay": "flow cytometry on SK-OV-3 cells"}},
  "data": [
    {"binder": "Bispecific antibody AB11K (Anti-Mucin1×CD3, scFv1-scFv2-Fc) (bispecific antibody) EVQLVESGGGLVQPGGSMRLSCVASGFPFSNYWMNWVRQAPGKGLEWVGEIRLKSNNYTTHYAESVKGRFTISRDDSKNSLYLQMNSLKTEDTAVYYCTRHYYFDYWGQGTLVTVSSGGGGSGGGGSGGGGSDIVMTQSPLSNPVTPGEPASISCRSSKSLLHSNGITYFFWYLQKPGQSPQLLIYQMSNLASGVPDRFSGSGSGTDFTLRISRVEAEDVGVYYCAQNLELPPTFGQGTKVEIKGGGGGGSGGGGSGGGGSSSSSKAPPPSEVQLLESGGGLVQPGGSLKLSCAASGFTFNTYAMNWVRQAPGKGLEWVARIRSKYNNYATYYADSVKDRFTISRDDSKNTAYLQMNNLKTEDTAVYYCVRHGNFGNSYVSWFAYWGQGTLVTVSSGGGGSGGGGSGGGGSELVVTQEPSLTVSPGGTVTLTCRSSTGAVTTSNYANWVQQKPGQAPRGLIGGTNKRAPGTPARFSGSLLGGKAALTLSGVQPEDEAEYYCALWYSNLWVFGGGTKLTVLDKTHTCPPCPAPEAAGGPSVFLFPPKPKDQLMISRTPEVTCVVVDVSHEDPEVKFNWYVDGVEVHNAKTKPREEQYASTYRVVSVLTVLHQDWLNGKEYKCKVSNKALPASIEKTISKAKGQPREPQVYTLPPSRDELTKNQVSLTCLVKGFYPSDIAVEWESNGQPENNYKTTPPVLDSDGSFFLYSKLTVDKSRWQQGNVFSCSVLHEALHNHYTQKSLSLSPG", "values": [
      {"measurement": "PBMC killing EC50, BT-549 cells", "setting": "[1]", "value": 0.956, "unit": "nM"},
      {"measurement": "PBMC killing EC50, HCC70 cells", "setting": "[1]", "value": 0.595, "unit": "nM"},
      {"measurement": "PBMC killing EC50, HCC1954 cells", "setting": "[1]", "value": 1.89, "unit": "nM"},
      {"measurement": "PBMC killing EC50, HT-29 cells", "setting": "[1]", "value": 9.55, "unit": "nM"},
      {"measurement": "PBMC killing EC50, Hela cells", "setting": "[1]", "value": 4.81, "unit": "nM"},
      {"measurement": "PBMC killing EC50, MCF-7 cells", "setting": "[1]", "value": 0.131, "unit": "nM"},
      {"measurement": "T cell killing EC50, BT-549 cells", "setting": "[1]", "value": 0.141, "unit": "nM"},
      {"measurement": "T cell killing EC50, HCC70 cells", "setting": "[1]", "value": 0.185, "unit": "nM"},
      {"measurement": "T cell killing EC50, HCC1954 cells", "setting": "[1]", "value": 0.281, "unit": "nM"},
      {"measurement": "T cell killing EC50, HT-29 cells", "setting": "[1]", "value": 1.58, "unit": "nM"},
      {"measurement": "T cell killing EC50, Hela cells", "setting": "[1]", "value": 0.278, "unit": "nM"},
      {"measurement": "T cell killing EC50, MCF-7 cells", "setting": "[1]", "value": 0.153, "unit": "nM"},
      {"measurement": "T cell killing EC50, SK-OV-3 cells", "setting": "[1]", "value": 0.689, "unit": "nM"},
      {"measurement": "T cell killing EC50, T-47D cells", "setting": "[1]", "value": 0.0845, "unit": "nM"},
      {"measurement": "T cell activation EC50 (Jurkat-NFAT luciferase) with BT-549 cells", "setting": "[2]", "value": 10.5, "unit": "nM"},
      {"measurement": "T cell activation EC50 (Jurkat-NFAT luciferase) with HCC70 cells", "setting": "[2]", "value": 3.02, "unit": "nM"},
      {"measurement": "T cell activation EC50 (Jurkat-NFAT luciferase) with HCC1954 cells", "setting": "[2]", "value": 5.6, "unit": "nM"},
      {"measurement": "T cell activation EC50 (Jurkat-NFAT luciferase) with HT-29 cells", "setting": "[2]", "value": 6.71, "unit": "nM"},
      {"measurement": "T cell activation EC50 (Jurkat-NFAT luciferase) with Hela cells", "setting": "[2]", "value": 7.24, "unit": "nM"},
      {"measurement": "T cell activation EC50 (Jurkat-NFAT luciferase) with MCF-7 cells", "setting": "[2]", "value": 14.2, "unit": "nM"},
      {"measurement": "T cell activation EC50 (Jurkat-NFAT luciferase) with SK-OV-3 cells", "setting": "[2]", "value": 10.4, "unit": "nM"},
      {"measurement": "T cell activation EC50 (Jurkat-NFAT luciferase) with T-47D cells", "setting": "[2]", "value": 0.629, "unit": "nM"},
      {"measurement": "EC50", "setting": "[3]", "value": 5.51, "unit": "nM"},
      {"measurement": "EC50", "setting": "[4]", "value": 59, "unit": "nM"},
      {"measurement": "EC50", "setting": "[5]", "value": 5.05, "unit": "nM"},
      {"measurement": "EC50", "setting": "[6]", "value": 287, "unit": "nM"},
      {"measurement": "EC50", "setting": "[7]", "value": 81.2, "unit": "nM"},
      {"measurement": "EC50", "setting": "[8]", "value": 93.7, "unit": "nM"}
    ]}
  ]
}
